Numbered stars: 1 amine (or outer) side, 2 acyl side, 3 side chain; on linkers, the order of the positions; unused ones are H or OH. Bridge positions count the residues as written; N and C are the ends. Side chains are listed from the residue outwards. Ends that are not written are not given here. * marks the point of attachment. C20 diacid = O=C(O)CCCCCCCCCCCCCCCCCCC(=O)*; γGlu = O=C(O)[C@H](CCC(=O)[*:2])N[*:1]; AEEA = NCCOCCOCC(=O)O
T1: human amylin receptor (amylin 3(a) receptor: human calcitonin receptor with RAMP-3) (human, UniProt P30988 25-474; O60896 24-148)
T1 construct: whole, on cells; also called hAmylin-R; hAmylinR
T1 sequence (looked up) 1: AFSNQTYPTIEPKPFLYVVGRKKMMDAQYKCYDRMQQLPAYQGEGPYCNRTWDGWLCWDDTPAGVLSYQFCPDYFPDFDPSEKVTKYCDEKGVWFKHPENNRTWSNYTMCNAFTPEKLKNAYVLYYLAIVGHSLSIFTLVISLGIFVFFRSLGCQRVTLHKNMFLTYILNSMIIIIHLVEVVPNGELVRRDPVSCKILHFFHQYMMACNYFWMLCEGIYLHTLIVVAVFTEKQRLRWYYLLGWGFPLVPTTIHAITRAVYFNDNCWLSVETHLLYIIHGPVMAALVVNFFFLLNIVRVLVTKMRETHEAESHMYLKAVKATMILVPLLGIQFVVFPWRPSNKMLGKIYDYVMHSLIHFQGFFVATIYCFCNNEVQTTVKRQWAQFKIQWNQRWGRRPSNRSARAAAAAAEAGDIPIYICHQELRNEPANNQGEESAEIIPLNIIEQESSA
T1 sequence (looked up) 2: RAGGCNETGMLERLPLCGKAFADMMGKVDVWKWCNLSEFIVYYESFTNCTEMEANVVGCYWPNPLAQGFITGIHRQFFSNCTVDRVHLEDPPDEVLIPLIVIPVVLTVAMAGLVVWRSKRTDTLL

B1: N^ε1-[2-[2-[2-[[(4S)-4-carboxy-4-(19-carboxynonadecanoylamino)butanoyl]amino]ethoxy]ethoxy]acetyl]-[His14,Arg17,Pro21,Pro27,Pro34]-h-amylin (peptide)
peptide: K([AEEA-γGlu-C20 diacid])CNTATCATQRLAHFLRHSSPNFGAIPSSTNVGPNTY-NH2
modifications: disulfide 2-7; N-terminus assumed
SMILES: CC[C@H](C)[C@H](NC(=O)[C@H](C)NC(=O)CNC(=O)[C@H](Cc1ccccc1)NC(=O)[C@H](CC(N)=O)NC(=O)[C@@H]1CCCN1C(=O)[C@H](CO)NC(=O)[C@H](CO)NC(=O)[C@H](Cc1c[nH]cn1)NC(=O)[C@H](CCCNC(=N)N)NC(=O)[C@H](CC(C)C)NC(=O)[C@H](Cc1ccccc1)NC(=O)[C@H](Cc1c[nH]cn1)NC(=O)[C@H](C)NC(=O)[C@H](CC(C)C)NC(=O)[C@H](CCCNC(=N)N)NC(=O)[C@H](CCC(N)=O)NC(=O)[C@@H](NC(=O)[C@H](C)NC(=O)[C@@H]1CSSC[C@H](NC(=O)[C@@H](N)CCCCNC(=O)COCCOCCNC(=O)CC[C@H](NC(=O)CCCCCCCCCCCCCCCCCCC(=O)O)C(=O)O)C(=O)N[C@@H](CC(N)=O)C(=O)N[C@@H]([C@@H](C)O)C(=O)N[C@@H](C)C(=O)N[C@@H]([C@@H](C)O)C(=O)N1)[C@@H](C)O)C(=O)N1CCC[C@H]1C(=O)N[C@@H](CO)C(=O)N[C@@H](CO)C(=O)N[C@H](C(=O)N[C@@H](CC(N)=O)C(=O)N[C@H](C(=O)NCC(=O)N1CCC[C@H]1C(=O)N[C@@H](CC(N)=O)C(=O)N[C@H](C(=O)N[C@@H](Cc1ccc(O)cc1)C(N)=O)[C@@H](C)O)C(C)C)[C@@H](C)O
notes: also called 68; compound 68
B2: N^ε1-[2-[2-[2-[[(4S)-4-carboxy-4-(19-carboxynonadecanoylamino)butanoyl]amino]ethoxy]ethoxy]acetyl]-[Thr14,Arg17,Pro21,Pro27,Pro31]-h-amylin (peptide)
peptide: K([AEEA-γGlu-C20 diacid])CNTATCATQRLATFLRHSSPNFGAIPSSTPVGSNTY-NH2
modifications: disulfide 2-7; N-terminus assumed
SMILES: CC[C@H](C)[C@H](NC(=O)[C@H](C)NC(=O)CNC(=O)[C@H](Cc1ccccc1)NC(=O)[C@H](CC(N)=O)NC(=O)[C@@H]1CCCN1C(=O)[C@H](CO)NC(=O)[C@H](CO)NC(=O)[C@H](Cc1c[nH]cn1)NC(=O)[C@H](CCCNC(=N)N)NC(=O)[C@H](CC(C)C)NC(=O)[C@H](Cc1ccccc1)NC(=O)[C@@H](NC(=O)[C@H](C)NC(=O)[C@H](CC(C)C)NC(=O)[C@H](CCCNC(=N)N)NC(=O)[C@H](CCC(N)=O)NC(=O)[C@@H](NC(=O)[C@H](C)NC(=O)[C@@H]1CSSC[C@H](NC(=O)[C@@H](N)CCCCNC(=O)COCCOCCNC(=O)CC[C@H](NC(=O)CCCCCCCCCCCCCCCCCCC(=O)O)C(=O)O)C(=O)N[C@@H](CC(N)=O)C(=O)N[C@@H]([C@@H](C)O)C(=O)N[C@@H](C)C(=O)N[C@@H]([C@@H](C)O)C(=O)N1)[C@@H](C)O)[C@@H](C)O)C(=O)N1CCC[C@H]1C(=O)N[C@@H](CO)C(=O)N[C@@H](CO)C(=O)N[C@H](C(=O)N1CCC[C@H]1C(=O)N[C@H](C(=O)NCC(=O)N[C@@H](CO)C(=O)N[C@@H](CC(N)=O)C(=O)N[C@H](C(=O)N[C@@H](Cc1ccc(O)cc1)C(N)=O)[C@@H](C)O)C(C)C)[C@@H](C)O
notes: also called 75; compound 75
B3: N^ε1-[2-[2-[2-[[(4S)-4-carboxy-4-(19-carboxynonadecanoylamino)butanoyl]amino]ethoxy]ethoxy]acetyl]-[His14,Arg17,Pro21,Pro27]-h-amylin (peptide)
peptide: K([AEEA-γGlu-C20 diacid])CNTATCATQRLAHFLRHSSPNFGAIPSSTNVGSNTY-NH2
modifications: disulfide 2-7; N-terminus assumed
SMILES: CC[C@H](C)[C@H](NC(=O)[C@H](C)NC(=O)CNC(=O)[C@H](Cc1ccccc1)NC(=O)[C@H](CC(N)=O)NC(=O)[C@@H]1CCCN1C(=O)[C@H](CO)NC(=O)[C@H](CO)NC(=O)[C@H](Cc1c[nH]cn1)NC(=O)[C@H](CCCNC(=N)N)NC(=O)[C@H](CC(C)C)NC(=O)[C@H](Cc1ccccc1)NC(=O)[C@H](Cc1c[nH]cn1)NC(=O)[C@H](C)NC(=O)[C@H](CC(C)C)NC(=O)[C@H](CCCNC(=N)N)NC(=O)[C@H](CCC(N)=O)NC(=O)[C@@H](NC(=O)[C@H](C)NC(=O)[C@@H]1CSSC[C@H](NC(=O)[C@@H](N)CCCCNC(=O)COCCOCCNC(=O)CC[C@H](NC(=O)CCCCCCCCCCCCCCCCCCC(=O)O)C(=O)O)C(=O)N[C@@H](CC(N)=O)C(=O)N[C@@H]([C@@H](C)O)C(=O)N[C@@H](C)C(=O)N[C@@H]([C@@H](C)O)C(=O)N1)[C@@H](C)O)C(=O)N1CCC[C@H]1C(=O)N[C@@H](CO)C(=O)N[C@@H](CO)C(=O)N[C@H](C(=O)N[C@@H](CC(N)=O)C(=O)N[C@H](C(=O)NCC(=O)N[C@@H](CO)C(=O)N[C@@H](CC(N)=O)C(=O)N[C@H](C(=O)N[C@@H](Cc1ccc(O)cc1)C(N)=O)[C@@H](C)O)C(C)C)[C@@H](C)O
notes: also called 69; compound 69
B4: N^ε1-[(4S)-4-carboxy-4-(19-carboxynonadecanoylamino)butanoyl]-[Ala14,Arg17,Pro21,Pro27,His34]-h-amylin (peptide)
peptide: K([γGlu-C20 diacid])CNTATCATQRLAAFLRHSSPNFGAIPSSTNVGHNTY-NH2
modifications: disulfide 2-7; N-terminus assumed
SMILES: CC[C@H](C)[C@H](NC(=O)[C@H](C)NC(=O)CNC(=O)[C@H](Cc1ccccc1)NC(=O)[C@H](CC(N)=O)NC(=O)[C@@H]1CCCN1C(=O)[C@H](CO)NC(=O)[C@H](CO)NC(=O)[C@H](Cc1c[nH]cn1)NC(=O)[C@H](CCCNC(=N)N)NC(=O)[C@H](CC(C)C)NC(=O)[C@H](Cc1ccccc1)NC(=O)[C@H](C)NC(=O)[C@H](C)NC(=O)[C@H](CC(C)C)NC(=O)[C@H](CCCNC(=N)N)NC(=O)[C@H](CCC(N)=O)NC(=O)[C@@H](NC(=O)[C@H](C)NC(=O)[C@@H]1CSSC[C@H](NC(=O)[C@@H](N)CCCCNC(=O)CC[C@H](NC(=O)CCCCCCCCCCCCCCCCCCC(=O)O)C(=O)O)C(=O)N[C@@H](CC(N)=O)C(=O)N[C@@H]([C@@H](C)O)C(=O)N[C@@H](C)C(=O)N[C@@H]([C@@H](C)O)C(=O)N1)[C@@H](C)O)C(=O)N1CCC[C@H]1C(=O)N[C@@H](CO)C(=O)N[C@@H](CO)C(=O)N[C@H](C(=O)N[C@@H](CC(N)=O)C(=O)N[C@H](C(=O)NCC(=O)N[C@@H](Cc1c[nH]cn1)C(=O)N[C@@H](CC(N)=O)C(=O)N[C@H](C(=O)N[C@@H](Cc1ccc(O)cc1)C(N)=O)[C@@H](C)O)C(C)C)[C@@H](C)O
notes: also called 93; compound 93
B5: N^ε1-[2-[2-[2-[[(4S)-4-carboxy-4-(19-carboxynonadecanoylamino)butanoyl]amino]ethoxy]ethoxy]acetyl]-[Lys14,Arg17,Pro21,Pro27,Pro31]-h-amylin (peptide)
peptide: K([AEEA-γGlu-C20 diacid])CNTATCATQRLAKFLRHSSPNFGAIPSSTPVGSNTY-NH2
modifications: disulfide 2-7; N-terminus assumed
SMILES: CC[C@H](C)[C@H](NC(=O)[C@H](C)NC(=O)CNC(=O)[C@H](Cc1ccccc1)NC(=O)[C@H](CC(N)=O)NC(=O)[C@@H]1CCCN1C(=O)[C@H](CO)NC(=O)[C@H](CO)NC(=O)[C@H](Cc1c[nH]cn1)NC(=O)[C@H](CCCNC(=N)N)NC(=O)[C@H](CC(C)C)NC(=O)[C@H](Cc1ccccc1)NC(=O)[C@H](CCCCN)NC(=O)[C@H](C)NC(=O)[C@H](CC(C)C)NC(=O)[C@H](CCCNC(=N)N)NC(=O)[C@H](CCC(N)=O)NC(=O)[C@@H](NC(=O)[C@H](C)NC(=O)[C@@H]1CSSC[C@H](NC(=O)[C@@H](N)CCCCNC(=O)COCCOCCNC(=O)CC[C@H](NC(=O)CCCCCCCCCCCCCCCCCCC(=O)O)C(=O)O)C(=O)N[C@@H](CC(N)=O)C(=O)N[C@@H]([C@@H](C)O)C(=O)N[C@@H](C)C(=O)N[C@@H]([C@@H](C)O)C(=O)N1)[C@@H](C)O)C(=O)N1CCC[C@H]1C(=O)N[C@@H](CO)C(=O)N[C@@H](CO)C(=O)N[C@H](C(=O)N1CCC[C@H]1C(=O)N[C@H](C(=O)NCC(=O)N[C@@H](CO)C(=O)N[C@@H](CC(N)=O)C(=O)N[C@H](C(=O)N[C@@H](Cc1ccc(O)cc1)C(N)=O)[C@@H](C)O)C(C)C)[C@@H](C)O
notes: also called 74; compound 74
B6: N^ε1-[2-[2-[2-[[(4S)-4-carboxy-4-(19-carboxynonadecanoylamino)butanoyl]amino]ethoxy]ethoxy]acetyl]-[Ser14,Arg17,Pro21,Pro27,Pro31]-h-amylin (peptide)
peptide: K([AEEA-γGlu-C20 diacid])CNTATCATQRLASFLRHSSPNFGAIPSSTPVGSNTY-NH2
modifications: disulfide 2-7; N-terminus assumed
SMILES: CC[C@H](C)[C@H](NC(=O)[C@H](C)NC(=O)CNC(=O)[C@H](Cc1ccccc1)NC(=O)[C@H](CC(N)=O)NC(=O)[C@@H]1CCCN1C(=O)[C@H](CO)NC(=O)[C@H](CO)NC(=O)[C@H](Cc1c[nH]cn1)NC(=O)[C@H](CCCNC(=N)N)NC(=O)[C@H](CC(C)C)NC(=O)[C@H](Cc1ccccc1)NC(=O)[C@H](CO)NC(=O)[C@H](C)NC(=O)[C@H](CC(C)C)NC(=O)[C@H](CCCNC(=N)N)NC(=O)[C@H](CCC(N)=O)NC(=O)[C@@H](NC(=O)[C@H](C)NC(=O)[C@@H]1CSSC[C@H](NC(=O)[C@@H](N)CCCCNC(=O)COCCOCCNC(=O)CC[C@H](NC(=O)CCCCCCCCCCCCCCCCCCC(=O)O)C(=O)O)C(=O)N[C@@H](CC(N)=O)C(=O)N[C@@H]([C@@H](C)O)C(=O)N[C@@H](C)C(=O)N[C@@H]([C@@H](C)O)C(=O)N1)[C@@H](C)O)C(=O)N1CCC[C@H]1C(=O)N[C@@H](CO)C(=O)N[C@@H](CO)C(=O)N[C@H](C(=O)N1CCC[C@H]1C(=O)N[C@H](C(=O)NCC(=O)N[C@@H](CO)C(=O)N[C@@H](CC(N)=O)C(=O)N[C@H](C(=O)N[C@@H](Cc1ccc(O)cc1)C(N)=O)[C@@H](C)O)C(C)C)[C@@H](C)O
notes: also called 73; compound 73

The binders below were run against T1, human amylin receptor (amylin 3(a) …) (assay: SPA displacement of 125I-rat amylin, hAmylin 3(a) receptor membranes).
Procedure, shortened: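 SPA beads with BHK Amylin 3(a)/CRE-luc cell membranes (35 ng/μL final) in 50 mM Hepes pH 7.4, 1 mM CaCl2, 5 mM MgCl₂, 0.1% OA, 0.02% Tween20.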

Which IC50 does the source give for B1 here?
Its IC50 is 0.088 nM.

For B2, which IC50 is on record?
Its IC50 is 0.666 nM.

With B3 as the binder, how does the IC50 read?
The IC50 was 0.133 nM.

With B4 as the binder, how does the IC50 read?
The IC50 was 0.176 nM.

For B5, which IC50 is on record?
Its IC50 is 0.791 nM.

For B6, which IC50 is on record?
Its IC50 is 0.104 nM.

From US20140087995A1 (published 2014)
